Tested on: MS2 coat protein
Assay: apparent KD of MS2 coat protein; designed switch direction (-1 OFF switch, 1 ON switch): -1; higher = weaker reporter binding
In short: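 SNAP-549-labelled MS2 coat protein was titrated, doubling from 0.7 or 1.5 nM to 3 µM, over designed RNA switches transcribed on Illumina chips by stalled E. coli RNA polymerase. Runs were done without input, with 200 uM small-molecule ligand, or with an oligonucleotide input. Apparent KD is the per-design median over clusters of curve-fitted normalised fluorescence.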

[1] = input ligand: microRNA oligo, concentration not stated
[2] = Eterna round: R95, input ligand: FMN 200 uM
[3] = Eterna round: R95, input ligand: microRNA oligo, concentration not stated
[4] = Eterna round: R95, input ligand: none

Sequence: GGCGCACAUGAGGAUCACCCAUGUGAGGAUAUUAGGCGAUCGUCGAAAGACGAUAGCCUGAGAAGGCACAUGCC [Eli x1 4.19] (Eterna round: R97, puzzle: Exclusion 1)
- apparent KD of MS2 coat protein (input ligand: FMN 200 uM): 154 nM
- apparent KD of MS2 coat protein (input ligand: none): 33.1 nM

Sequence: AGCUGGAGAGGAUAUACGUAGGAAAAAAAAGUCUGAUCACUACAUGAGGAUCACCCAUGUAGAAGGCUCUGGCA [Ex2 Design 162: Sub-opt 26] (Eterna round: R96, puzzle: Exclusion 2)
- apparent KD of MS2 coat protein (input ligand: FMN 200 uM): 104 nM
- apparent KD of MS2 coat protein [1]: 16.5 nM
- apparent KD of MS2 coat protein (input ligand: none): 20.5 nM

Sequence: GCCAGAGCAGGAUAUCUAUAUUAUCACAUGAGGAUCACCCAUGUCCAGCGAAAGCUGGAGGGAGAAGGGCUCUGGC [Fiskers Ex 5 - 26] (puzzle: Exclusion 5)
- apparent KD of MS2 coat protein [2]: 55.7 nM
- apparent KD of MS2 coat protein [3]: 76.7 nM
- apparent KD of MS2 coat protein [4]: 74.5 nM

Sequence: CCUCCACAUGAGGAUCACCCAUGUCAGGAUAUCGUGUGCGCGUUUUCGGUCUUUCGCGCGAGAAGGGACGUCUG (puzzle: Exclusion 1)
- apparent KD of MS2 coat protein [3]: 24 nM

Sequence: ACGUAUAGAGGAUAUAGUGAAUAUUACAUGAGGAUCACCCAUGUUCUUCAAAGCAUAUUCCUAGAAGGCUAAUGAA [EX-5 Malc#12] (puzzle: Exclusion 5)
- apparent KD of MS2 coat protein [2]: 113 nM
- apparent KD of MS2 coat protein [3]: 44.4 nM
- apparent KD of MS2 coat protein [4]: 56.4 nM

Sequence: AGAUCACAUGAGGAUCACCCAUGUCAGGAUAUCAUCAUUGAAGCUGCGGCUUCAAUGAUGAGAAGGGACAUAAU [E1/2-B3] (Eterna round: R97, puzzle: Exclusion 1)
- apparent KD of MS2 coat protein (input ligand: FMN 200 uM): 105 nM
- apparent KD of MS2 coat protein (input ligand: none): 412 nM

Sequence: AACUCGUUAGGAUAUACCGCCAACGAUACCUCGUGAAACAUACAUGAGGAUCACCCAUGUAGAAGGAGCGAGCA [Vearbe] (puzzle: Exclusion 2)
- apparent KD of MS2 coat protein [3]: 15.7 nM

Sequence: GUGCUACAUGAGGAUCACCCAUGUCAGGAUAUGCGAAUUUCAUCAAAAGAUGAAAUUUGCAGAAGGGACAACAC [Omei Ex1 A18] (Eterna round: R97, puzzle: Exclusion 1)
- apparent KD of MS2 coat protein (input ligand: FMN 200 uM): 88.2 nM
- apparent KD of MS2 coat protein (input ligand: none): 38.5 nM

Sequence: AUACACUAACGAGGAUAUUGGAAAGGAAGUGUACAAGAAGGCGUCCGUGGAAGGGUGAAACAUGAGGAUCACCCAUGUGAAUAA [Exclusion NG 1] (Eterna round: R96, puzzle: Exclusion NG 1)
- apparent KD of MS2 coat protein (input ligand: FMN 200 uM): 519 nM
- apparent KD of MS2 coat protein [1]: 254 nM
- apparent KD of MS2 coat protein (input ligand: none): 648 nM

Sequence: AGGAAGCAAGGAUAUACGAGGAGAAGGUGUCCAUCUAAAGGACAUGAGGAUCACCCAUGUAGAAGGUGCGAGAA [JR_Exclu2_Sub049] (puzzle: Exclusion 2)
- apparent KD of MS2 coat protein [2]: 49.6 nM
- apparent KD of MS2 coat protein [3]: 210 nM
- apparent KD of MS2 coat protein [4]: 189 nM

Sequence: CCUGCACAUGAGGAUCACCCAUGUCAGGAUAUCUCGCCGCGAAGAGCAACACGGUAUUAGAGAAGGGACACGGG [Bimavees] (puzzle: Exclusion 1)
- apparent KD of MS2 coat protein [3]: 24.5 nM

Sequence: UCAAACAUCGUUAGGAUAUGCUGGACUAAAUAGUGGCAGAAGGAACAUGAGGAUCACCCAUGUGCCUCGAUUGC [Eternabot (L2) Solution 26] (Eterna round: R97, puzzle: Brourd's mod of Exclusion 4)
- apparent KD of MS2 coat protein (input ligand: FMN 200 uM): 17.4 nM
- apparent KD of MS2 coat protein (input ligand: none): 13.4 nM

Sequence: GUGUCACAUGAGGAUCACCCAUGUGAGGAUAUCAUGCUUCGUAGUAAACUACGAAGUGUGAGAAGGCACAUGAC [Omei Ex1 E1] (Eterna round: R97, puzzle: Exclusion 1)
- apparent KD of MS2 coat protein (input ligand: FMN 200 uM): 71 nM
- apparent KD of MS2 coat protein (input ligand: none): 47.8 nM

Sequence: UACCGGCGGACCGAAGCUUUUUGCUUGUCUUAUACUACAACAUGAGGAUCACCCAUGUGGUGGUGGUCCGUUGUAGU [JL ViennaUCT Bitein mod 2] (puzzle: Sensor v3, turn-off variant 2)
- apparent KD of MS2 coat protein [2]: 54.4 nM
- apparent KD of MS2 coat protein [3]: 17.8 nM
- apparent KD of MS2 coat protein [4]: 47.3 nM

Sequence: UUUUAACAUGAGGAUCACCCAUGUGAGGAUAUCGAAAUUUAUAUUAAUAUUUUUAUAACGAGAAGGCACAUUUU [JMF 71] (puzzle: Exclusion 1)
- apparent KD of MS2 coat protein [3]: 64.8 nM

Sequence: AGAAGUAGAAACCGAUCCUACAUGAGGAUCACCCAUGUAGCAAGACGUGCACGCGAAGCUCGUCAGACUACCAGAAU [salish99_TOv1_r3_006] (puzzle: Sensor v3, turn-off variant 1)
- apparent KD of MS2 coat protein [2]: 340 nM
- apparent KD of MS2 coat protein [3]: 193 nM
- apparent KD of MS2 coat protein [4]: 347 nM

Sequence: AGUACUAACACGUCGGUGUUAGUACAAUAAGCUUGUGAAACAUGAGGAUCACCCAUGUCCUCAUAAGCUCGUCUUAU [salish99_TOv2_r3_080] (Eterna round: R96, puzzle: Sensor v3, turn-off variant 2)
- apparent KD of MS2 coat protein (input ligand: FMN 200 uM): 16.4 nM
- apparent KD of MS2 coat protein [1]: 492 nM
- apparent KD of MS2 coat protein (input ligand: none): 17.8 nM

Sequence: UUACAAUGUCACUUACAAGCUUUUUGCUCGUCUUAUAUUACAUGAGGAUCACCCAUGUAGAUCAUGUGGCGUGACCU [JL ViennaUCT Maridi mod 10] (puzzle: Sensor v3, turn-off variant 2)
- apparent KD of MS2 coat protein [2]: 145 nM
- apparent KD of MS2 coat protein [3]: 46.7 nM
- apparent KD of MS2 coat protein [4]: 151 nM

Sequence: GUGUGAAGUUAGGAUAUGAUCGGACAAGAGCCUUCAGAAGGGACCACAUGAGGAUCACCCAUGUUGUCGGUGGC [Eternabot (L1) Solution 41] (Eterna round: R97, puzzle: Exclusion 6)
- apparent KD of MS2 coat protein (input ligand: FMN 200 uM): 20.5 nM
- apparent KD of MS2 coat protein (input ligand: none): 18.6 nM

Sequence: CCUCCGGCAGGAUAUGCAGGGAGGAUGUUGUGUUAUUGGUAACAUGAGGAUCACCCAUGUAGAAGGGCCAAUAC [Eternabot (L2) Solution 42] (Eterna round: R97, puzzle: Exclusion 2)
- apparent KD of MS2 coat protein (input ligand: FMN 200 uM): 17.9 nM
- apparent KD of MS2 coat protein (input ligand: none): 15 nM

Sequence: AUGAGGUUAGGAUAUACAUGAGGAUCACCCAUGUUGAAAGGUUAGGUAGGCGGAGCUGGUAGAAGGAACGGAGC [JR_Exclu3_Sub056] (puzzle: Exclusion 3)
- apparent KD of MS2 coat protein [3]: 27.8 nM

Sequence: GCAGGAUAAGUGAGGAUAUACCUAUGGAUACAUAGGUAGAAGGUACAUGAGGAUCACCCAUGUUCCUCACCUGC [Fiskers BMX 4 - 64] (puzzle: Brourd's mod of Exclusion 4)
- apparent KD of MS2 coat protein [3]: 10.1 nM

Sequence: GCACAGGCAGGAUAUACAUGAGGAUCACCCAUGUGAUCCCUUAGGUACAAAAGUACUAGUAGAAGGGCCUGUGC [Omei Ex3 Model Bachelor's Dilema v49] (Eterna round: R97, puzzle: Exclusion 3)
- apparent KD of MS2 coat protein (input ligand: FMN 200 uM): 403 nM
- apparent KD of MS2 coat protein (input ligand: none): 1040 nM

Sequence: AUAAAUCAUGUAGGAUAUGCGUGGCGAAGCUAUGCAGAAGGACAUGAGGAUCACCCAUGUGCUUGCGUCUGAGUACAGAUGCUA [Mat - Exclusion NG 1 - Mod of JL - D6] (Eterna round: R96, puzzle: Exclusion NG 1)
- apparent KD of MS2 coat protein (input ligand: FMN 200 uM): 264 nM
- apparent KD of MS2 coat protein [1]: 77.1 nM
- apparent KD of MS2 coat protein (input ligand: none): 91.8 nM

Sequence: GCGCCAUCGUGAGAUGGCGUAUAUACAUGAGGAUCACCCAUGUAGGAUAUCGAUUGCUUUGCAGUCGAGAAGGGCAAGGUAUUU [JL ENG3 3.91] (Eterna round: R96, puzzle: Exclusion NG 3)
- apparent KD of MS2 coat protein (input ligand: FMN 200 uM): 34 nM
- apparent KD of MS2 coat protein [1]: 25.5 nM
- apparent KD of MS2 coat protein (input ligand: none): 33.8 nM

Sequence: AGCUGUGGCCGAGGAUAUCACGAACCAUGGAAAACCAUGGAACUCACACAUGAGGAUCACCCAUGUGAGAAGGCGGUCUCAGCA [Eli eng2 - 021] (Eterna round: R96, puzzle: Exclusion NG 2)
- apparent KD of MS2 coat protein (input ligand: FMN 200 uM): 16.3 nM
- apparent KD of MS2 coat protein [1]: 8.68 nM
- apparent KD of MS2 coat protein (input ligand: none): 15.1 nM

Sequence: AAGUAGGGAGGAUAUACAUAGAUACAGAUUCAUGUAGAACUACAUGAGGAUCACCCAUGUAGAAGGCCCUAAUA [AJ 37] (Eterna round: R96, puzzle: Exclusion 2)
- apparent KD of MS2 coat protein (input ligand: FMN 200 uM): 255 nM
- apparent KD of MS2 coat protein [1]: 25.1 nM
- apparent KD of MS2 coat protein (input ligand: none): 27.9 nM

Sequence: UGGUGGAAGCAGGAUAUGCUUGUAUUAUUGAUAGCAGAAGGGCUAACAUGAGGAUCACCCAUGUAAGAGGUGUA [JR_E6_Sub057] (puzzle: Exclusion 6)
- apparent KD of MS2 coat protein [2]: 190 nM
- apparent KD of MS2 coat protein [3]: 203 nM
- apparent KD of MS2 coat protein [4]: 238 nM

Sequence: CUUAGGUGAGGAUAUUAGUAGUAAAUAAAUAAAAUUAUUACUGAGAAGGCACAUGAGGAUCACCCAUGUUCCUC [Salish 062 v3] (Eterna round: R97, puzzle: Exclusion 4)
- apparent KD of MS2 coat protein (input ligand: FMN 200 uM): 548 nM
- apparent KD of MS2 coat protein (input ligand: none): 37 nM

Sequence: GGAUCGAAAGUGAGGAUAUACCUAUGGAAACAUAGGUAGAAGGCACAUGAGGAUCACCCAUGUUCCUACGGUCC [Mat - Exclusion 4 - Eli Mod - D10] (Eterna round: R97, puzzle: Brourd's mod of Exclusion 4)
- apparent KD of MS2 coat protein (input ligand: FMN 200 uM): 113 nM
- apparent KD of MS2 coat protein (input ligand: none): 20 nM

Sequence: AUGGUUAGGUCAGGAUAUCGUUGAUUGAAUAGUAUGAUUUACAUGAGGAUCACCCAUGUUAUAUACGAGAAGGGACUUUAUCAU [JR_ExcNG2_Sub023] (Eterna round: R96, puzzle: Exclusion NG 2)
- apparent KD of MS2 coat protein (input ligand: FMN 200 uM): 9.77 nM
- apparent KD of MS2 coat protein [1]: 8.77 nM
- apparent KD of MS2 coat protein (input ligand: none): 18.6 nM

Sequence: UUUGUUGUUGUGAGGAUAUACUGUUUGUUUUGUUUGUAGAAGGUACAUGAGGAUCACCCAUGUUGGUUGUUUUU [JR_BME4_Sub030] (puzzle: Brourd's mod of Exclusion 4)
- apparent KD of MS2 coat protein [3]: 24.3 nM

Sequence: UGCUAGUCAGGAUAUACGAACAUGUCAAAAGACGUGAAGGGACAUGAGGAUCACCCAUGUAGAAGGGACUAGCU [salish99_ex2_r3_006] (puzzle: Exclusion 2)
- apparent KD of MS2 coat protein [2]: 165 nM
- apparent KD of MS2 coat protein [3]: 25.2 nM
- apparent KD of MS2 coat protein [4]: 27.1 nM

Sequence: UGCGGUUGAGGAUAUACGUAGAACUAGGUUCAUGUAAAACUACAUGAGGAUCACCCAUGUAGAAGGCAAUCGCU [Mat - Exclusion 2 - JL Mod - D41] (Eterna round: R97, puzzle: Exclusion 2)
- apparent KD of MS2 coat protein (input ligand: FMN 200 uM): 23.9 nM
- apparent KD of MS2 coat protein (input ligand: none): 20.3 nM
